# Test results taken from the RNAGym collection of RNA variant scans (doi:10.1073/pnas.2313332121).
# B1: TPR t1 (parent)
# chain: GACCAAUCUGCCCUCAGAGCUCGAGAACAUCUUCGGAUGCAGAGGAGGCAGGCUUCGGUGGCGCGAUAGCGCCAACGUCCUCAACCUCCAAUGCAUCCCACCACAUGAUGAUGCCUGAAGAGCCUUGGUUUUUUG
# Variants of: B1
# Experiment: polymerase ribozyme fitness, log enrichment relative to wild type (log ratio); higher = more active; in vitro selection for triplet polymerase activity
# Outline: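 Mutant libraries of each subunit of a heterodimeric triplet polymerase ribozyme were built by PCR and transcribed. Each library went through one round of in vitro selection in triplicate: annealing with biotinylated primer, partner subunit and triplets, frozen incubation at −7 °C, gel excision of extended constructs, streptavidin-bead capture and RT-PCR. Input and output libraries were Illumina-sequenced; only genotypes with ≥10 input reads and ≥1 read per output were kept. Fitness is log2(genotype enrichment/wild-type enrichment), using inverse-variance-weighted replicate averages.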
row,Variant,polymerase ribozyme fitness (log ratio)
1,GACCAAUCUGCCCUCAGAGCUCGAGAACAUCUUCGGAUGCGGAGGAGGCAGGCUUCGGUGGCGCGAUAGCGCCAACGUCCUCAACCUCCAUUGCAUCCCACCACAUGAUGAUGCCUGAAGAGCCUUGGUUUUUUG [A41G A91U],-1.63
2,GACCAAUCUGCCCUCAGAGCUCGAGAACAUCUUCGGAUGCUGAGGAGGCAGGAUUCGGUGGCGCGAUAGCGCCAACGUCCUCAACCUCCAAUGCAUCCCACCACAUGAUGAUGCAUGAAGAGCCUUGGUUUUUUG [A41U C53A C115A],-1.03
3,GACCAAUCUGCCCUCAGAGCUCGAGAACAUCUUCGGAUGCGGAGGAGGCAGGCUUCGGUGGCGCGAUACCGCCAACGUCCUCAACCUCCAAUGCAUCCCACCACAUGAUGAUGCCUGAAGAGCCUUGGUUUUUUG [A41G G69C],-1.9
4,GACCAAUCUGCCCUCAGAGCUCGAGAACAUCUUCGGAUGCUGAGGAGGCAGGCUUCGGUGGCGCGAUAGCGCCAACGUCCUCAACCUCCAAUGCAUCCCACCACAUGAUGAUGCCUGAAGAGCCUUGGUUUUUUG [A41U],-1.14
5,GACCAAUCUGCCCUCAGAGCUCGAGAACAUCUUCGGAUGCUGAGGAGGCAGGCUUCGGUGGCGCGAUGGCGCCAACGUCCUCAACCUCCAAUGCAUCCCACCACAUGAUGAUGCCUGAAGAGCCUUGGUUUUUUG [A41U A68G],-5.2
6,GACCAAUCUGCCCUCAGAGCUCGAGAACAUCUUCGGAUGCGGAGGAGGCAGGCUUCGGUGGCGCGAUAGCGCCAACGUCCUCUACCUCCAAUGCAUCCCACCACAUGAUGAUGCCUGAAGAGCCUUGGUUUUUUG [A41G A83U],-0.499
7,GACCAAUCUGCCCUCAGAGCUCGAGAACAUCUUCGGAUGCGGAGGAGGCAGGCUUCGGUGGCGCGAUAGCCCCAACGUCCUCAACCUCCAAUGCAUCCCACCACAUGAUGAUGCCGGAAGAGCCUUGGUUUUUUG [A41G G71C U116G],-3.99
8,GACCAAUCUGCCCUCAGAGCUCGAGAACAUCUUCGGAUGCGGAGGAGGCAGGCUUCGGUGGCGCGAUGGCGCCAACGUCCUUAACCUCCAAUGCAUCCCACCACAUGAUGAUGCCUGAAGAGCCUUGGUUUUUUG [A41G A68G C82U],-5.28
9,GACCAAUCUGCCCUCAGAGCUCGAGAACAUCUUCGGAUGCUGAGGAGGCAGGGUUCGGUGGGGCGAUAGCGCCAACGUCCUCAUCCUCCAAUGCAUCCCACCACAUGAUGAAGCCUGAAGAGCCUUGGUUUUUUG [A41U C53G C62G A84U U112A],-4.47
10,GACCAAUCUGCCCUCAGAGCUCGAGAACAUCUUCGGAUGCGGAGGAGGCAGGCUUCGGUGGCGCGAUAGCGCCAACGUGCUCAACCUCCAAUGCAUCCCACCACAUGAUGAUGACUGAAGAGCCUUGGUUUUUUG [A41G C79G C114A],-5.3
11,GACCAAUCUGCCCUCAGAGCUCGAGAACAUCUUCGGAUGCGGAGGAGGCAGGCUUAGGUGGCGCGAUAGCGCCAUCGUCCUCAACCUCCAAUGCAUCCCACCACAUGAUGAUGCCUUAAGAGCCUUGGUUUUUUG [A41G C56A A75U G117U],-3.99
12,GACCAAUCUGCCCUCAGAGCUCGAGAACAUCUUCGGAUGCUGUGGAGGCAGGCUUCGGUGGCGCGAUACCGCCAACCUCCUCAACCUCCAAUACAUCCCACCACAUGAUGAUGCCUGAAGAGCGUUGGUUAUUUG [A41U A43U G69C G77C G93A C124G U131A],-1.81
13,GACCAAUCUGCCCUCAGAGCUCGAGAACAUCUUCGGAUGCUGAGGAGGCAGGCUUCGGUGGCGCGAUAGCGCCAACGUCCUCAACCUCUAAUGCAUCCCACCACAUGAUGAUGCCUGAAGAGACUUGGUUUUUUG [A41U C89U C123A],-1.59
14,GACCAAUCUGCCCUCAGAGCUCGAGAACAUCUUCGGAUGCUGAGGAGGCAGGCUUAGGUGGCGCGAUAGCGUCAACGUCCUCAACCUCCAAGGCAUCCCACCACAUGAUGAUGCCUGAAGAGCCUUGGUUUUUUG [A41U C56A C72U U92G],-1.3
15,GACCAAUCUGCCCUCAGAGCUCGAGAACAUCUUCGGAUGCGGAGGAGACAGGCUUCGGUGGCGCGAUAGCGCCAACGUCCUCAACCUCCAAUGCAUCCCACCACAUGAUGAUGCCUGAAGAGCCUUGGUUUUUUG [A41G G48A],-1.31
16,GACCAAUCUGCCCUCAGAGCUCGAGAACAUCUUCGGAUGCGGAGGAGGCAGGCUUCGGUGCCGCGAUAGCGCCAACGUCCUCAACCUCCAAUGCCUCCCAUCACAAGAUGAUGCCUGAAGAGCCUUGGUUUUUUG [A41G G61C A95C C101U U106A],-3.41
17,GACCAAUCUGCCCUCAGAGCUCGAGAACAUCUUCGGAUGCGGAGGAGGCAGGCUUCGGUGGCUCGAUAGCGCCAACGUCCUCAACCUCCAAUGCAUCCCACCACAUGAUGAUGCCUGAAGAGCCUUGGUUUUUUG [A41G G63U],-2.37
18,GACCAAUCUGCCCUCAGAGCUCGAGAACAUCUUCGGAUGCUGAGGAGGCAGGCUUUGGUGGCGCGAUAGCGCCAACGGCCUCAACCUCCAAUGCAUCCCACCACAUGAUGAUGCCUGAAGAGCCUUGGUUUUUUG [A41U C56U U78G],-1.47
19,GACCAAUCUGCCCUCAGAGCUCGAGAACAUCUUCGGAUGCUGAGGAGGCAGGCUUCGGUGGCGCGAUAGCGCCAACGUCCUCAUCCUACAAUGCAUCCCACCACAUGAUGAUGCCUGAAGAGCCUUGGUUUUUUG [A41U A84U C88A],-3.83
20,GACCAAUCUGCCCUCAGAGCUCGAGAACAUCUUCGGAUGCGGAGGAGGCAGGCUUCGGUGGCGCGAUAGCGCCAACGUCCUCAACCUCCAAUGCAUCCCACCACAUGAUGAUACCUGAAGAGCAUUGGUUUUUUG [A41G G113A C124A],-0.366
21,GACCAAUCUGCCCUCAGAGCUCGAGAACAUCUUCGGAUGCUGAGGAGGCAGGCUUCGGUGGCGCGAUAGCGCCAACGUCCUCAACCUCCAAUGCAUCCUACCACAUGAUGAUGCCUGAAGAGCUUUGGUUUUUUG [A41U C99U C124U],-5.19

row,Variant,polymerase ribozyme fitness (log ratio)
1,GACCAAUCUGCCCUCAGAGCUCGAGAACAUCUUCGGAUGCGGAGGAGGGAGGCUUCGUUGGCGCGAUAGCGCCAACGUACUCAACCUCCAAUGCAUCCCACCACAUGAUGAUGCCUGAAGAGCCUUGGUUUUUUG [A41G C49G G58U C79A],-6.14
2,GACCAAUCUGCCCUCAGAGCUCGAGAACAUCUUCGGAUGCGGAGGAGGCAAGCUUCGGUGGCGCGAUAGCGCCAACGUCCUCAACCUCCCAUGCAUCCCACCACAUGAUGAUGCCUGAAGAGCCUUGGUUUUUUG [A41G G51A A90C],-5.76
3,GACCAAUCUGCCCUCAGAGCUCGAGAACAUCUUCGGAUGCUGAGGAGGCAGGCUUCGGUGGCGCGAUAGAGCCAACGGCCUCAACCUCCAAUGCAUCCCACCACAUGAUGAUGCCUGAAGAGUCUUGGUUUUUUG [A41U C70A U78G C123U],-3.32
4,GACCAAUCUGCCCUCAGAGCUCGAGAACAUCUUCGGAUGCGGAGGAGGCAGGCUUCGGUGGCGCGAUAGCGCCAACGUCCUCAACCUCCAAUGCAUCCCACCACAUGAUGAUGCCUUAAGAGCCUUGGUUUUUUG [A41G G117U],-2.99
5,GACCAAUCUGCCCUCAGAGCUCGAGAACAUCUUCGGAUGCGGAGGAGGCAGGCUUCGGUGGCACGAUAGCGCCAGCGUCCUCAAACUCCAAUGCAUCCCACCACAUGAUGAUGCCUGAAGAGCCUUGGUUUUAUG [A41G G63A A75G C85A U133A],-3.04
6,GACCAAUCUGCCCUCAGAGCUCGAGAACAUCUUCGGAUGCGGAGGAGGCAGGCUUCGGUGGCGCGAUAGCGCGAACGUCCUCAACCCCCAAUGCAUCCCACCAUAUGAUGAUGCAUGAAGAGGCUUGGUUUUUUA [A41G C73G U87C C104U C115A C123G G135A],0.00105
7,GACCAAUCUGCCCUCAGAGCUCGAGAACAUCUUCGGAUGCGGAGGAGGCAGGCUUCGGUGGCGUGAUAGCGCCAACGUCCUCAACCUCCAUUGCAUCCCACCACAAGAUAAUGCCUGAAGAGCCUUGGUUUUUUG [A41G C64U A91U U106A G110A],-5.83
8,GACCAAUCUGCCCUCAGAGCUCGAGAACAUCUUCGGAUGCUGAGGAGGCAGGCUUCGGUGGCGCGAUAGCGCGAACGUCCUCAACCUCCCAUGCAUCCCACCACAUGAUGAUGUCUGAAGAGCCUUGAUUUUUUG [A41U C73G A90C C114U G128A],-5.13
9,GACCAAUCUGCCCUCAGAGCUCGAGAACAUCUUCGGAUGCUGAGGAGGCAGGCUUCGGUGGCGCGAUAGCGCCAACGUCCUCAACCUCCAAUGCAUCUCACCACAUGAUGAUGCCUGAAGAGCCUUGGUUUUUUG [A41U C98U],-2.83
10,GACCAAUCUGCCCUCAGAGCUCGAGAACAUCUUCGGAUGCUGAGGAGGCAGGUUUCGGUGGCGCGAUAGCGCAAACGUCCUCAACCUCCAAUGCAUCCCACCACAUGAUGAUGCCUGAAUAGCCUUGGUUUUUUG [A41U C53U C73A G120U],-2.14
11,GACCAAUCUGCCCUCAGAGCUCGAGAACAUCUUCGGAUGCUGAGGAGGCAGGCUUCGGUGGCGCGAUAGCGCCAACGUCCUCAACCUCUAAUGCAUCCCACCACAUGAUGAUGCCUGAAGAGCCUUGGUUUUUUG [A41U C89U],-1.32
12,GACCAAUCUGCCCUCAGAGCUCGAGAACAUCUUCGGAUGCUGAGGAGGCAGGCUUCGGUGGCGUGAUAGCGCUAACGUCCUCAACCUCCAAUGCAUCCCACCACACGAUGAUGCCUGAAGAGCCUUGGUUUUUUG [A41U C64U C73U U106C],-1.79
13,GACCAAUCUGCCCUCAGAGCUCGAGAACAUCUUCGGAUGCGGAGGAGGCAGGCUUCGGUGGCGCGAUAGCGCCAACGUCCUCAACCUCCAAUGCAUCCCACCACAUGAUGCUGCCUGAAGAGCCUUGGUUUUUUG [A41G A111C],-0.47
14,GACCAAUCUGCCCUCAGAGCUCGAGAACAUCUUCGGAUGCGGAGGAGGCAGGCUUCGGUGGCGCGAUAGCGCCAACGUCCUCAACCUCCAAUGCAUCCCACUACAUGAUGAUGCCUGAAGAGCCUUGGUUUUUUG [A41G C102U],-3.18
15,GACCAAUCUGCCCUCAGAGCUCGAGAACAUCUUCGGAUGCUGAGGAGGCAGGCUUCGGUGGCGUGAUAGCGCCAACGUCCUCAACCCCCAAUGCAUCCCACCACACGAUGAUGCCUGAAGAGACUUGGUUUUUUG [A41U C64U U87C U106C C123A],-1.38
16,GACCAAUCUGCCCUCAGAGCUCGAGAACAUCUUCGGAUGCGGAGGAUGCAGGCUUCGGUGGCGCGAUAGCGCCAACGUCCUCAACCUCCAAUGCAUCCCACCACAUGAUGAUGCCUGAAAAGCCUUGGUUUUUUG [A41G G47U G120A],-3.73
17,GACCAAUCUGCCCUCAGAGCUCGAGAACAUCUUCGGAUGCGGAGGAGGCAGGCUUAGGUGGCGCGAUAGCGCCAACGUCCUCAACCUCCAAUGCAUCCCACCACAUGAUGAUGCCUGAAGAGCCUUGGUUUUUUG [A41G C56A],-1.81
18,GACCAAUCUGCCCUCAGAGCUCGAGAACAUCUUCGGAUGCUGAGGAGGCAGGGUUCGGUGGGGCGAUAGCGCCAACGUCCUCAACCUCCAAUGCAUCCCACCACAUGAUGAUCCCUGAAGAGCCUUGGUUUUUUG [A41U C53G C62G G113C],-6.56
19,GACCAAUCUGCCCUCAGAGCUCGAGAACAUCUUCGGAUGCUGAGGAGGCAGGCUUCGGUGGCGCGAUAGUGCCAACGUCCUCAUCCUCCAAUGCAUCCCACCACAUGAUGAUGCCCGAAGAGCUUUGGUAUUUUG [A41U C70U A84U U116C C124U U130A],-5.57
20,GACCAAUCUGCCCUCAGAGCUCGAGAACAUCUUCGGAUGCGGAGGAGGCAUGCUUCGGUGGCGCGAUAGCGCCAACGUCCUCAACCUCCAAUGCAUCCCACCACAUGAUGAUGGCUGAAGAGCCUUGGUUUUUUG [A41G G51U C114G],-5.83
21,GACCAAUCUGCCCUCAGAGCUCGAGAACAUCUUCGGAUGCUGAGGAGGCAGGCUUCGGUGGCGCGAUAGCGCCAACGUCCUCAACCUCCAAUGCAUCCCACCACCUGAUGAUGCCUGAAGAGCCUUGGUUUUUUG [A41U A105C],-5.02
